Article PMC4207781

Biological target: Fc gamma receptor IIb (FcγRIIb) on GM-CSF macrophages (human (endogenous in monocyte-derived macrophages)) (UniProt P31994)
Chain of UniProt P31994 (P31994 43-217): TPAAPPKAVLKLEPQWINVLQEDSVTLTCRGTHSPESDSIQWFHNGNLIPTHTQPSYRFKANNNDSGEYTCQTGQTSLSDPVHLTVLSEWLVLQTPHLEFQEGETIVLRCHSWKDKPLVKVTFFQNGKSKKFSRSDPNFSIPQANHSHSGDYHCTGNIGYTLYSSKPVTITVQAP

In the case of “heat-aggregated immune complexes (IC) of human IgG”, the reduction of TNFα release by gmMφ co-cultured 1:5 with cytokine activated T cells (Tck) for 20 h, with ICs (50 µg/ml) is reported as 50%.
